These results are taken from patent US20240398911A1 (BOARD OF THE TRUSTEES OF THE UNIVERSITY OF ILLINOIS, published 2024).

In assay [1] the target is S protein of SARS-CoV-1 expressed on Expi293F cells (SARS-CoV-1, UniProt P59594 14-1255). As to the kind of experiment: flow cytometry; Expi293F cells expressing S of SARS-CoV-1; normalized units, N=3.
In assay [2] the target is T1, RBD (a.a. 333-529) of SARS-CoV-2 S with 8 histidine tag (SARS-CoV-2, UniProt P0DTC2 333-529).
For assay [3], the target named is full length S of SARS-CoV-2 (untagged, a.a. 1-1273) expressed on Expi293F cells (SARS-CoV-2, UniProt P0DTC2 16-1273).
Assay [4] addresses T1, RBD (a.a. 333-529) of SARS-CoV-2 S with …. This is another data set of the same source.
The target is the same in assay [5]. As to the kind of experiment: BLI, sACE22-IgG1 immobilized, RBD-8h analyte. For orientation: BLI is a label-free optical method that tracks binding on a fibre tip over time.

Where two headings read alike, the source gives them in different places.

The term EC50 (read off the curve) denotes the concentration at which the effect is half-maximal. Read a low EC50 (read off the curve) as a more potent agent. The term Kd denotes a measure of binding affinity in units of concentration. Read a low Kd as tighter binding. The koff is the first-order rate constant of dissociation. High values mean fast dissociation, low ones slow dissociation. One may read the kon as the second-order rate constant of association. A higher kon goes with fast association.

B1: REGN10987 (imdevimab) (antibody, V domains shown)
VH: QVQLVESGGGVVQPGRSLRLSCAASGFTFSNYAMYWVRQAPGKGLEWVAVISYDGSNKYYADSVKGRFTISRDNSKNTLYLQMNSLRTEDTAVYYCASGSDYGDYLLVYWGQGTLVTVSS
VL: QSALTQPASVSGSPGQSITISCTGTSSDVGGYNYVSWYQQHPGKAPKLMIYDVSKRPSGVSNRFSGSKSGNTASLTISGLQSEDEADYYCNSLTSISTWVFGGGTKLTVLG
As to B1, the binding result in assay [1] is “no binding (tested: 70 nM)”.

B2: REGN10933 (casirivimab) (antibody, V domains shown)
VH: QVQLVESGGGLVKPGGSLRLSCAASGFTFSDYYMSWIRQAPGKGLEWVSYITYSGSTIYYADSVKGRFTISRDNAKSSLYLQMNSLRAEDTAVYYCARDRGTTMVPFDYWGQGTLVTVSS
VL: DIQMTQSPSSLSASVGDRVTITCQASQDITNYLNWYQQKPGKAPKLLIYAASNLETGVPSRFSGSGSGTDFTFTISGLQPEDIATYYCQQYDNLPLTFGGGTKVEIKR
On to B2, for which the binding result in assay [1] is on record as “no binding (tested: 70 nM)”.

B3: sACE2.v2 with 8 histidine tag (receptor)
chain: STIEEQAKYFLDKFNHEAEDLFYQSSLASWNYNTNITEENVQNMNNAGDKWSAFLKEQSTTAQMYPLQEIQNLTVKLQLQALQQNGSSVLSEDKSKRLNTILNTMSTIYSTGKVCNPDNPQECLLLEPGLNEIMANSLDYNERLWAWESWRSEVGKQLRPLYEEYVVLKNEMARANHYEDYGDYWRGDYEVNGVDGYDYSRGQLIEDVEHTFEEIKPLYEHLHAYVRAKLMNAYPSYISPIGCLPAHLLGDMWGRFWTNLYSLTVPFGQKPNIDVTDAMVDQAWDAQRIFKEAEKFFVSVGLPNMTQGFWEYSMLTDPGNVQKAVCHPTAWDLGKGDFRILMCTKVTMDDFLTAHHEMGHIQYDMAYLAQPFLLRNGANEGFHEAVGEIMSLSAATPKHLKSIGLLSPDFQEDNETEINFLLKQALTIVGTLPFTYMLEKWRWMVFKGEIPKDQWMKKWWEMKREIVGVVEPVPHDETYCDPASLFHVSNDYSFIRYYTRTLYQFQFQEALCQAAKHEGPLHKCDISNSTEAGQKLFNMLRLGKSEPWTLALENVVGAKNMNVRPLLNYFEPLFTWLKDQNKNSFVGWSTDWSPYADGSGHHHHHHHH
Consider B3, for which, in assay [2], the “IC50 (read off the curve)” value was roughly 6 nM. Also, the “EC50 (read off the curve)” value in assay [3] was roughly 10 nM.

B4: dimeric sACE22.v2.4 with 8 histidine tag (receptor)
chain: STIEEQAKYFLDKFNHEAEDLFYQSSLASWNYNTNITEENVQNMNNAGDKWSAFLKEQSTTAQMYPLQEIQNLTVKLQLQALQQNGSSVLSEDKSKRLNTILNTMSTIYSTGKVCNPDNPQECLLLEPGLNEIMANSLDYNERLWAWESWRSEVGKQLRPLYEEYVVLKNEMARANHYEDYGDYWRGDYEVNGVDGYDYSRGQLIEDVEHTFEEIKPLYEHLHAYVRAKLMNAYPSYISPIGCLPAHLLGDMWGRFWTNLYSLTVPFGQKPNIDVTDAMVDQAWDAQRIFKEAEKFFVSVGLPNMTQGFWEYSMLTDPGNVQKAVCHPTAWDLGKGDFRILMCTKVTMDDFLTAHHEMGHIQYDMAYAAQPFLLRNGANEGFHEAVGEIMSLSAATPKHLKSIGLLSPDFQEDNETEINFLLKQALTIVGTLPFTYMLEKWRWMVFKGEIPKDQWMKKWWEMKREIVGVVEPVPHDETYCDPASLFHVSNDYSFIRYYTRTLYQFQFQEALCQAAKHEGPLHKCDISNSTEAGQKLFNMLRLGKSEPWTLALENVVGAKNMNVRPLLNYFEPLFTWLKDQNKNSFVGWSTDWSPYADQSIKVRISLKSALGDKAYEWNDNEMYLFRSSVAYAMRQYFLKVKNQMILFGEEDVRVANLKPRISFNFFVTAPKNVSDIIPRTEVEKAIRMSRSRINDAFRLNDNSLEFLGIQPTLGGSGHHHHHHHH
Turning to B4, the “IC50 (read off the curve)” value in assay [4] is roughly 4 nM.

B5: dimeric sACE22.v2 fused to the Fc of human IgG1 (Fc fusion)
chain: STIEEQAKYFLDKFNHEAEDLFYQSSLASWNYNTNITEENVQNMNNAGDKWSAFLKEQSTTAQMYPLQEIQNLTVKLQLQALQQNGSSVLSEDKSKRLNTILNTMSTIYSTGKVCNPDNPQECLLLEPGLNEIMANSLDYNERLWAWESWRSEVGKQLRPLYEEYVVLKNEMARANHYEDYGDYWRGDYEVNGVDGYDYSRGQLIEDVEHTFEEIKPLYEHLHAYVRAKLMNAYPSYISPIGCLPAHLLGDMWGRFWTNLYSLTVPFGQKPNIDVTDAMVDQAWDAQRIFKEAEKFFVSVGLPNMTQGFWEYSMLTDPGNVQKAVCHPTAWDLGKGDFRILMCTKVTMDDFLTAHHEMGHIQYDMAYLAQPFLLRNGANEGFHEAVGEIMSLSAATPKHLKSIGLLSPDFQEDNETEINFLLKQALTIVGTLPFTYMLEKWRWMVFKGEIPKDQWMKKWWEMKREIVGVVEPVPHDETYCDPASLFHVSNDYSFIRYYTRTLYQFQFQEALCQAAKHEGPLHKCDISNSTEAGQKLFNMLRLGKSEPWTLALENVVGAKNMNVRPLLNYFEPLFTWLKDQNKNSFVGWSTDWSPYADQSIKVRISLKSALGDKAYEWNDNEMYLFRSSVAYAMRQYFLKVKNQMILFGEEDVRVANLKPRISFNFFVTAPKNVSDIIPRTEVEKAIRMSRSRINDAFRLNDNSLEFLGIQPTLGGS
For the molecule B5, in assay [5], the Kd was found to be 0.2 nM, the koff came to 0.00014 s⁻¹ and the on-rate (kon) came to 580000 M⁻¹ s⁻¹.
